Test results taken from patent publication EP4700044A1, “PROTEIN ANALOGUE AND USE THEREOF” (Shanghai Duomirui Biotechnology., Ltd., priority 2023, dated 2024).

Legend:
[1] = biological target: T1, FGFR1c and the cofactor β-Klotho (Homo sapiens, UniProt P11362+Q86Z14); experiment: dual-luciferase reporter gene assay in iLite FGF21 assay ready cells; assay type: cell-based; details: Example 13, four-parameter fitting
T1 construct: host or cells: iLite FGF21 assay ready cells (genetically engineered reporter gene cell line)
Source text: iLite FGF21 assay ready cells (purchased from SAVR) is a genetically engineered reporter gene cell line that responds to signals downstream to FGF21 agonism through the expression of firefly luciferase. The receptor FGFR1c and the cofactor β-Klotho were co-overexpressed on the surface of iLite FGF21 assay ready cells and have undergone genetic optimization to enhance sensitivity, such that FGF21 will cause an increase in luciferase expression in a dose-response manner. The luciferase activity detection kit was purchased from Promega (catalog number #E2980).
iLite FGF21 assay ready cells were cultured adherently in basal medium (DMEM Gluta Max, purchased from Gibco) containing 10% fetal bovine serum (FBS, purchased from Gibco) and 1% penicillin/streptomycin (purchased from Gibco). For the activity determination experiment, […] cells per well and test samples such as FGF21 mutant proteins and FGF21 conjugate molecules modified with albumin-binding agent were added to all-white 96-well culture plates (purchased from Corning), and the chemiluminescence values were detected in a microplate reader according to the instructions of the luciferase activity detection kit. Finally, the half-maximal effective concentration (EC50) values of the tested samples were obtained by means of four-parameter fitting.

[2] = system: high-fat diet-induced db/db mice; experiment: pharmacodynamic test in db/db mice induced by high-fat diet (NASH model); assay type: in vivo; details: subcutaneous injection once every three days, 6 weeks, liver sections, hematoxylin-eosin staining
Source text: Establishment of a db/db mouse model induced by high-fat diet: Male db/db mice, 8 weeks old, were adaptively fed with a standard diet for 2-3 days, after which all feed was replaced with 60% high-fat feed for rearing. After 3 weeks of high-fat feed feeding, the NASH model could be obtained. Administration: N = 6, subcutaneous injection of Vehicle and protein analogues (5 or 20 nmol/kg) was given once every three days, with an administration period of 6 weeks.
At the end of the administration, liver tissue sections were taken for hematoxylin-eosin staining to detect the effect of protein analogs on the non-alcoholic fatty liver disease activity score (NAS score) in high-fat diet-induced db/db mice.

[3] = pharmacokinetic test in minipigs; assay type: in vivo; details: 1 mg/kg, subcutaneous injection, plasma, human FGF21 ELISA
Description: The pharmacokinetic properties of protein analogs can be tested in mice or minpigs.
Minipig experiment (N = 3): The injection dose was 1 mg/kg, and the injection method was subcutaneous injection. The blood-collection time points for plasma samples were 0.083, 0.25, 0.5, 1, 2, 4, 6, 8, 12, 24, 48, 72, 96, 120, 144, 168, 192, 216, 240, 264, 288 h. The blood was collected into EDTA·2K-coated test tubes (which must be temporarily stored on ice) and centrifuged at 1200 × g for 10 minutes at 4°C. Subsequently, the plasma was transferred to Micronic tubes and stored at -20°C. The human FGF21 detection ELISA kit (CAT: RD191108200R) produced by Biovendor was used to monitor the blood drug concentration.

T1 sequence (P11362 22-822): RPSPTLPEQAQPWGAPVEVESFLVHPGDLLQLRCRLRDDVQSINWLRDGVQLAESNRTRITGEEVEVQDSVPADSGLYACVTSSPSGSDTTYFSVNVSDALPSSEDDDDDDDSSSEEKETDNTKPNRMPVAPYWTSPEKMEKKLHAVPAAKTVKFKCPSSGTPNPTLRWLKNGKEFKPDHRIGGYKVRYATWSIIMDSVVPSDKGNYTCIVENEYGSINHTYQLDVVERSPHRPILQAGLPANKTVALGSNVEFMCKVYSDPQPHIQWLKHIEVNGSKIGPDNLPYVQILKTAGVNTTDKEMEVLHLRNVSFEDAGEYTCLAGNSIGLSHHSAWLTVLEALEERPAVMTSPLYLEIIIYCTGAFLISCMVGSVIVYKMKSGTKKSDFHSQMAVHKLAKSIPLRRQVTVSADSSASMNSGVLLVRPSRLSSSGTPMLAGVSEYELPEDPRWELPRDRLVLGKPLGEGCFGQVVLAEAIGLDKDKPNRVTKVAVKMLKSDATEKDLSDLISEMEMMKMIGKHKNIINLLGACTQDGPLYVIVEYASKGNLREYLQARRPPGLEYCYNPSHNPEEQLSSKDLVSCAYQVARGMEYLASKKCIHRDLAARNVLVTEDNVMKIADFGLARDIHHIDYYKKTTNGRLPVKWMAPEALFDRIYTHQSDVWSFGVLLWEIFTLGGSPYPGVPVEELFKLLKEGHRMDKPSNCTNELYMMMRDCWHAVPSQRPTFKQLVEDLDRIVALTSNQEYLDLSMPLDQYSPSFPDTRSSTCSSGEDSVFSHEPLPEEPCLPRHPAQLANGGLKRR
T1 sequence (Q86Z14 whole entry): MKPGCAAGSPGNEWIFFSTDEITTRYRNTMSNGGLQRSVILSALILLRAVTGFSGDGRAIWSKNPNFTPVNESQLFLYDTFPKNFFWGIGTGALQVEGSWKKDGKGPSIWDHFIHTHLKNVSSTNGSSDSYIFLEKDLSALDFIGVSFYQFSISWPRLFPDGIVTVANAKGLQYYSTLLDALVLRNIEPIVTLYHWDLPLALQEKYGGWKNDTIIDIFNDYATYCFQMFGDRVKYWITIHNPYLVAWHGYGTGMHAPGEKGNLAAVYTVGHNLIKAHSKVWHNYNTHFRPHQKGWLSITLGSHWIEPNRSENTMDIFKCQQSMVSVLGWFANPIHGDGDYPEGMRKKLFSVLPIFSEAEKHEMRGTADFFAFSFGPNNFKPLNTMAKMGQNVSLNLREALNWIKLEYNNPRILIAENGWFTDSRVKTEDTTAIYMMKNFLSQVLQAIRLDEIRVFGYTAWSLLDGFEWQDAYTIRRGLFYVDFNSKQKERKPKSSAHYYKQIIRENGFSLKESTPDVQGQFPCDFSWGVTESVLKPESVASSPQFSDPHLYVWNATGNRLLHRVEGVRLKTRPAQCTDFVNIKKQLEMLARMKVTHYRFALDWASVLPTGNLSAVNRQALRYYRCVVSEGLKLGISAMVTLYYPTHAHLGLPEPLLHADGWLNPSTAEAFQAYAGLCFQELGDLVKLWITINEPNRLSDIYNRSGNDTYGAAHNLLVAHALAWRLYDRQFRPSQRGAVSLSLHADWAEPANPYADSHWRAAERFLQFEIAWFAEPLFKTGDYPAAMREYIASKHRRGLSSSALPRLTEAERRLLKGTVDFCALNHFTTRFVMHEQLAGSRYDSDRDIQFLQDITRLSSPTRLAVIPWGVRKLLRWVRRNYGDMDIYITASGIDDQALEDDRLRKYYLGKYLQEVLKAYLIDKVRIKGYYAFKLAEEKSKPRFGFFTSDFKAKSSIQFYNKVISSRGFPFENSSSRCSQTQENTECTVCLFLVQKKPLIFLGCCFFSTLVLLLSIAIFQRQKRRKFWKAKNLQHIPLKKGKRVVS

EC50 [1] | Molecule | NAS score ([2]; 5 nmol/kg) | NAS score ([2]; 20 nmol/kg) | half-life [3]
0.09 nM | Compound 12.1: Fatty acid-modified PAS-FGF21 dimer: PAS15FGF21 (SEQ ID NO: 13) modified by the side chain of Example 8.5 (conjugate, dimer; fatty acid side chain of Example 8.5) SPCASPAAPAPASPAAHPIPDSSPLLQFGGQVRQRYLYTDDAQQTEAHLEIREDGTVGGAADQSPESLLQLKALKPGVIQILGVKTSRFLCQRPDGALYGSLHFDPEACSFRERLLEDGYNVYQSEAHGLPLHLPGNKSPHRDPAPRGPARFLPLPGLPPAPPEPPGILAPQPPDVGSSDPLSMVGGSQGRSPSYES | 3.83 ± 0.98 | 3.33 ± 0.82 | –
0.11 nM | Compound 12.4: Fatty acid-modified PAS-FGF21 dimer: PAS100FGF21 (SEQ ID NO: 16) modified by the side chain of Example 8.5 (conjugate, dimer; fatty acid side chain of Example 8.5) SPCASPAAPAPASPAAPAPSAPAAASAAAPAAASAAASAPSAASAAASPAAPSAPPAAASPAAPSAPPAAASPAAPAPASPAASAPSAPAAASPAAPAPASHPIPDSSPLLQFGGQVRQRYLYTDDAQQTEAHLEIREDGTVGGAADQSPESLLQLKALKPGVIQILGVKTSRFLCQRPDGALYGSLHFDPEACSFRERLLEDGYNVYQSEAHGLPLHLPGNKSPHRDPAPRGPARFLPLPGLPPAPPEPPGILAPQPPDVGSSDPLSMVGGSQGRSPSYES | – | – | 75.4 ± 9.4 h
0.13 nM | Compound 12.2: Fatty acid-modified PAS-FGF21 dimer: PAS30FGF21 (SEQ ID NO: 14) modified by the side chain of Example 8.5 (conjugate, dimer; fatty acid side chain of Example 8.5) SPCASPAAPAPASPAAPAPSAPAAASAAAPAHPIPDSSPLLQFGGQVRQRYLYTDDAQQTEAHLEIREDGTVGGAADQSPESLLQLKALKPGVIQILGVKTSRFLCQRPDGALYGSLHFDPEACSFRERLLEDGYNVYQSEAHGLPLHLPGNKSPHRDPAPRGPARFLPLPGLPPAPPEPPGILAPQPPDVGSSDPLSMVGGSQGRSPSYES | 4.33 ± 1.03 | 3.40 ± 1.14 | 65.9 ± 3.8 h
– | Compound 12.6: Fatty acid-modified PAS-FGF21 dimer: PAS200FGF21 (SEQ ID NO: 17) as printed, modified by the side chain of Example 8.6 (conjugate, dimer; fatty acid side chain of Example 8.6) SPCASPAAPAPASPAAPAPSAPAAASAAAPAAASAAASAPSAASAAASPAAPSAPPAAASPAAPSAPPAAASPAAPAPASPAASAPSAPAAASPAAPAPASPAAPAPSAPAAASAAAPAAASAAASAPSASAAASAAAPAAASAAASAPSAASSAASPAAPSAPPAAASPAAPSAPPAAASPAAPAPASPAAPAPSAPAAAHPIPDSSPLLQFGGQVRQRYLYTDDAQQTEAHLEIREDGTVGGAADQSPESLLQLKALKPGVIQILGVKTSRFLCQRPDGALYGSLHFDPEACSFRERLLEDGYNVYQSEAHGLPLHLPGNKSPHRDPAPRGPARFLPLPGLPPAPPEPPGILAPQPPDVGSSDPLSMVGGSQGRSPSYES | – | – | 61.3 ± 1.1 h
0.11 nM | Compound 12.3: Fatty acid-modified PAS-FGF21 dimer: PAS50FGF21 (SEQ ID NO: 15) modified by the side chain of Example 8.5 (conjugate, dimer; fatty acid side chain of Example 8.5) SPCASPAAPAPASPAAPAPSAPAAASAAAPAAASAAASAPSAASAAASPAAHPIPDSSPLLQFGGQVRQRYLYTDDAQQTEAHLEIREDGTVGGAADQSPESLLQLKALKPGVIQILGVKTSRFLCQRPDGALYGSLHFDPEACSFRERLLEDGYNVYQSEAHGLPLHLPGNKSPHRDPAPRGPARFLPLPGLPPAPPEPPGILAPQPPDVGSSDPLSMVGGSQGRSPSYES | 4.33 ± 1.37 | 3.00 ± 0.89 | –
